In the supplement of paper PMC12764529:
± gives the half width of the 95% confidence interval.

How the values were obtained:
[1] = folding stability dG unfold from chymotrypsin proteolysis; higher = more stable
Procedure, shortened: (§1)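 Designed mini-proteins with no cysteine and under 80 residues were kept only if AlphaFold2 dimer inter-PAE was above 15. In a PA-tagged cDNA display construct, they were digested with trypsin and chymotrypsin and then sequenced. K50 was inferred by Bayesian fitting of counts, and unfolding free energy was derived per protease or combined against a sequence-predicted unfolded-state K50 and a shared folded-state K50.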

[2] = folding stability dG unfold from trypsin proteolysis; higher = more stable
Procedure, shortened: as §1

[3] = folding stability dG unfold (combined trypsin and chymotrypsin); higher = more stable
Procedure, shortened: as §1

Sequence | folding stability dG unfold [1] [kcal/mol] | folding stability dG unfold [2] [kcal/mol] | folding stability dG unfold [3] [kcal/mol]
SAPNYPFFVRIKLPGNGQEVEFPIESPEEADEMLDNFANHPHIKDIDIYRPDGEEVEIEIKIPPEALKQSAG [r14_747_TrROS] | 0.119 ± 0.16 | -0.622 ± 0.3 | 0.0333 ± 0.26
SAPPDFKIKDVKVRRHPHKQEDGGKEKEFPMYHVNVRIEDPNGNKIPINFMMDDPEEMLRFARKLLKKLSAG [r14_36_TrROS] | 2.17 ± 0.2 | 2.2 ± 0.14 | 2.14 ± 0.25
SAPPIEELSEEEIKKLVEEELKKKGISPENVKIEITIEKPPGPEYRVKVKVTYKKNKNYLEFEFEFELPSAG [r14_703_JUSTAS] | 4.23 ± 0.17 | 2.34 ± 0.2 | 3.96 ± 0.33
SAPPNVWVSRTDPATGAVHAEDIPFPDGATAETVPDPATGTVAQSSDGPPAVLEEVRAALPPDASIEPASAG [r14_252_JUSTAS] | -0.245 ± 0.42 | -0.555 ± 0.15 | -0.175 ± 0.2
SAPPRISIPWDPESGNWRVKVYNPKDPGKKREIDIPMKELQAKHGKPMSPNEIAQWLVKKGIDYVEIYPSAG [r14_809_TrROS] | 0.559 ± 0.21 | 0.183 ± 0.19 | 0.409 ± 0.2
SAPVRGPDGSVFEVDDITFDPDTRTVTVTTPEGTYTFPVPPGWVVEFDPVTKEITVRPLPDLSPENNPFPSA [r9_551_TrMRF] | 2.84 ± 0.06 | 2.54 ± 0.15 | 2.79 ± 0.097
SARIAEILRELGMEVSVENHPDGMNEITFKFPNGYKIQVHMSPNGIDVQIQPPEGERRTFSIDEIKDLLSAG [r14_578_TrROS] | 3.14 ± 0.046 | 2.23 ± 0.071 | 2.77 ± 0.081
SARPLVVTNPKGSTVRLDPSTGTAEFRNLVTGETVTAKVKPVPNGVLVEVEEGGVKKTFVVPEDGKIVLGSA [r9_239_TrMRF] | -0.372 ± 0.087 | 0.172 ± 0.052 | -0.0287 ± 0.066
SARRDGSKVFLELERVVPLDVPLETVLEEVRRLFPEDAEIRLEAVPRRDLLDGVPREYRVVRVIVVRDDSAG [r14_633_TrMRF] | 2.16 ± 0.039 | 1.06 ± 0.058 | 1.79 ± 0.15
SARTLTITVPPGYRARVVVTLENGEPLELEVPPSESVTLTIPPGVPALVRVEVFYPDGSVGEFEVEVDDSAG [r14_568_TrMRF] | 4.76 ± 0.14 | 4.65 ± 0.25 | 4.79 ± 0.2
SASEDETVETTTTTTSTFTLPNGETVTLTTTTKTTEKILPETGEVVESTTTTTTVTRTDASTTTTVATSSAG [r14_333_JUSTAS] | 1.22 ± 0.082 | 1.12 ± 0.068 | 1.27 ± 0.11
SASEDGYVVVEITIPIEIYMPMYKYSPDGKWKWEPHQMEIKLEITVQVKKDPEAADRAREFADRILDYISAG [r14_830_TrROS] | 3.59 ± 0.21 | 2.7 ± 0.13 | 3.22 ± 0.23
SASFTLTITPVSTLPGGEVKYEVTVTTPTATVTLSATYDPATGLITVTFPETGSTVTFDPATGTVTVTPSAG [r14_260_JUSTAS] | 5.089 ± 0.032 | 3.93 ± 0.12 | 5.05 ± 0.083
SASITHTVPGVQVRAYLNPDGYMFIQVYNPNDGEPKQPIWMPPDHITDVEVTGDWVKITIKMDPEDFKLSAG [r14_755_TrROS] | 2.32 ± 0.08 | 1.25 ± 0.052 | 2.06 ± 0.16
SASITLTAPGGKPVTLPVPPSLSVLSVELDPATGRWTIELQDPATGERFTVTVYAPPSGPAGVEVTPNVSAG [r14_311_JUSTAS] | 3.409 ± 0.02 | 3.61 ± 0.04 | 3.486 ± 0.032
SASLGISKIETSSLPNGTTVVTVTFSKPNLKVTLTKNPDGTITITLSPEVKKLPEEVKKLVEELAAKLSSAG [r14_555_JUSTAS] | 3.97 ± 0.048 | 3.97 ± 0.1 | 3.95 ± 0.095
SASMGPEALVERIAEEIRKELGVDAGYKAPVEVRRPPDLVVVDAKLTVYKPDGNPLGEKTVRVVLPPLLSAG [r14_708_JUSTAS] | 0.0373 ± 0.22 | -0.0399 ± 0.083 | 0.129 ± 0.29
SASMIIDPVSSEEEIEKLVKEAIEAGIGGEGLIVLRSDGKVYRITIEPGTGKVKKEEVMSPEELAAKLGSAG [r14_913_JUSTAS] | 2.11 ± 0.051 | 1.75 ± 0.053 | 2.12 ± 0.16
SASMIQKYFKSQGYKIEKIEEKTLPNGERVVSYKITSTVNVPPNEKGVSKPVKKTTELTLSTEEAIKLGSAG [r14_16_JUSTAS] | 1.32 ± 0.21 | 0.304 ± 0.14 | 1.04 ± 0.15
SASMSPEELIEIEIELKRGNRNFTLKIKIPVGLSEEEIEEAIEKAKKELEEKVKKLEEEPPLNPENNLISAG [r14_70_JUSTAS] | 3.45 ± 0.06 | 2.33 ± 0.17 | 3.11 ± 0.12
SASSETFEIEVKVKLFFRDPEKGKLVEREFDAIVKVTVNPETGEVKVEVYFKPLGKPVTITLPPGASIESAG [r14_587_TrMRF] | 4.54 ± 0.16 | 3.13 ± 0.2 | 4.26 ± 0.21

Sequence | folding stability dG unfold [1] [kcal/mol] | folding stability dG unfold [2] [kcal/mol] | folding stability dG unfold [3] [kcal/mol]
SASSITVSYDESTGVTTVTVDGGGFTFTVPNPEGKTLTVTVTQEALPDGTTRVTVTITFPDGSTTTVVVSAG [r14_675_JUSTAS] | 5 ± 0.18 | 4.17 ± 0.2 | 5.06 ± 0.17
SASSSTTTSSGTLEEVLQQVEDYLKANPNTLVTIAPPDGTTTTVDLSYSPSIAVNGDPSGLTTVTITNSSAG [r14_807_JUSTAS] | 0.932 ± 0.032 | 1.57 ± 0.057 | 1.23 ± 0.09
SASTSSISTETESRKISSFTVGDKEYEIYENTTTTTLPDGSVVTTTTLSVKDPSSNVTKTLSSTTTFTPSAG [r14_195_JUSTAS] | 2.49 ± 0.03 | 2.09 ± 0.044 | 2.32 ± 0.12
SATGAIVLEKPVEFNIPDKNGKPVFKSKVLIFVDPGKDKVYALIYDPKTGKKLIVEFNSPEEVKKFFESSAG [r14_508_TrMRF] | 1.54 ± 0.12 | 1.65 ± 0.031 | 1.65 ± 0.077
SATITVHNPWNGQPIEIRIDPGMTPEEIKKKIEKVPGIPPGTRDAVEKAIEYFEAYRQNPEQRKKLKKESAG [r14_732_TrROS] | 0.934 ± 0.096 | 0.241 ± 0.093 | 0.675 ± 0.13
SATMLDYILDMAREQQEKNGKPVPITITIPVRRDPNGKFRMNEIHEELIKALKEAFPNVPIKIEMVPPPSAG [r14_636_TrROS] | 2.27 ± 0.036 | 2.23 ± 0.076 | 2.28 ± 0.12
SATPTLTLEFEVEVEDPNAPGVPAPAKFTAEVAVTPPPVLYVGGEPWAGALLEQGLVTVGPDGLIAIPASAG [r14_582_TrMRF] | 1.11 ± 0.13 | 0.442 ± 0.072 | 0.775 ± 0.13
SAVFIEVERDPGDGAYEVTIHYLIPLRPYKDPDGKQKPPVYFMIEITIRFSPNGQIRDLDIDIFPFDAPSAG [r14_246_TrROS] | 4.41 ± 0.15 | 3.53 ± 0.13 | 4.28 ± 0.37
SAVITLPDGTTVPSTVVEETETPDGVRITVRTERDGVLEIVDLYEPPGGEVTVLSTEVVPVPPGDPALESAG [r14_13_JUSTAS] | -0.00381 ± 0.062 | 0.518 ± 0.028 | 0.285 ± 0.091
SAVLRIPNPITGEVRTLTLPTEVPAVSPDGVTSFRSPENLAAAIRALPSDVKVLSVVEHPDGTVTIVVDPSA [r9_997_TrMRF] | -0.414 ± 0.15 | 0.102 ± 0.059 | -0.0685 ± 0.064
SAVPAEGMSPEEAAALAEEVREAFEAEVKAAGGPIPADTVVTVDYALEGSPVTITLTFTTPDSVSTTVASAG [r14_501_JUSTAS] | 0.57 ± 0.079 | 1.12 ± 0.045 | 0.906 ± 0.06
SAVTPISLPSETGTLYRTDTDVILVVLKDPDPSVYRIITLKKKSADIKPLDENILGELSPEEANNPELLSAG [r14_384_JUSTAS] | 0.756 ± 0.11 | 0.617 ± 0.055 | 0.742 ± 0.081
SAWIPIDSPEEAKDIAKEIADNYGLEDTKVEPMPDNYVVVKLEFEMPNENGQKRKRNITIYYDPDGKFWSAG [r14_420_TrROS] | 1.07 ± 0.083 | 0.973 ± 0.04 | 1.1 ± 0.099
SDDKNMKPVKFKVEIEEERIEENGKKYIKIEVTWPGGNTVKIWFDPDKLIITFPVRSVEDVLEEVKDLIKSA [r9_662_TrROS] | 3.52 ± 0.039 | 2.19 ± 0.064 | 3.06 ± 0.085
SDDPKDKKKPKPEITMVPIVFKIPPGDELKIEEDPNGMIEVRVPNGHWIRVWILVNPDGNILNVMIEPWPSA [r9_1195_TrROS] | 3.21 ± 0.066 | 2.01 ± 0.15 | 2.82 ± 0.23
SDIENMPPEQFVHYIREALDEERENNPGEPVRIPIKDLGDKFPGFPPSMLKDMLGLTEDDLNNGPITIRPSA [r9_525_TrROS] | -0.189 ± 0.28 | -0.193 ± 0.079 | -0.0917 ± 0.23
SDKIVKLIKKIMEEMGLPITKITDVEPGWIVIRMPNGWKIDIEIDPDDPDVIDIKWQPDPNGGMYMVIPVSA [r9_809_TrROS] | 2.65 ± 0.069 | 2.03 ± 0.078 | 2.6 ± 0.21
SDLEAVLAAIDAVPPGTVVRIRLTLPDGVPLEITFDAGKEEIKALLEELVKEHPDVPIGIEIEVFPPEELSA [r9_37_TrMRF] | 3.71 ± 0.093 | 3.38 ± 0.1 | 3.61 ± 0.081
SDPNGKPKKRRFYVMITVPHKMKPERDPDGKMEMEHKMPTVMFPFPADDLDDLRDILEPFGISVSLMPLDSA [r9_1209_TrROS] | 2.14 ± 0.066 | 1.6 ± 0.057 | 1.94 ± 0.093
SDREFEAVFLVETPEEVEALARELALPGVEVEVHVLPAPYLDPETGEPRPFLLAVVRVRVPVPPPGPGALSA [r9_962_TrMRF] | 2.56 ± 0.055 | 0.969 ± 0.044 | 2.12 ± 0.088
SDRFTATVEYPDTGKTETIELDPSHLSITVEFTGSATFRVTISYDVNGDTFTVEAEFTAPLAPVPPEAFLSA [r9_1067_TrMRF] | 2.67 ± 0.028 | 2.25 ± 0.15 | 2.51 ± 0.11
